# Data taken from PMC4715492.
# Target: 2xMyc‐PAK6 (p21‐activated kinase 6) (human) (UniProt Q9NQU5)
# Test: co-IP; lysates of HEK293T cells co-transfected with Flag-LRRK2 and Myc-PAK6 or Myc-14-3-3; immunoprecipitation with anti-Flag or with anti-Myc; washes in lysis buffer (50 mM Tris pH 7.5, 1% Triton X-100) with 0.25 M NaCl; immunoblot
# Chain of UniProt Q9NQU5 (Q9NQU5 whole entry): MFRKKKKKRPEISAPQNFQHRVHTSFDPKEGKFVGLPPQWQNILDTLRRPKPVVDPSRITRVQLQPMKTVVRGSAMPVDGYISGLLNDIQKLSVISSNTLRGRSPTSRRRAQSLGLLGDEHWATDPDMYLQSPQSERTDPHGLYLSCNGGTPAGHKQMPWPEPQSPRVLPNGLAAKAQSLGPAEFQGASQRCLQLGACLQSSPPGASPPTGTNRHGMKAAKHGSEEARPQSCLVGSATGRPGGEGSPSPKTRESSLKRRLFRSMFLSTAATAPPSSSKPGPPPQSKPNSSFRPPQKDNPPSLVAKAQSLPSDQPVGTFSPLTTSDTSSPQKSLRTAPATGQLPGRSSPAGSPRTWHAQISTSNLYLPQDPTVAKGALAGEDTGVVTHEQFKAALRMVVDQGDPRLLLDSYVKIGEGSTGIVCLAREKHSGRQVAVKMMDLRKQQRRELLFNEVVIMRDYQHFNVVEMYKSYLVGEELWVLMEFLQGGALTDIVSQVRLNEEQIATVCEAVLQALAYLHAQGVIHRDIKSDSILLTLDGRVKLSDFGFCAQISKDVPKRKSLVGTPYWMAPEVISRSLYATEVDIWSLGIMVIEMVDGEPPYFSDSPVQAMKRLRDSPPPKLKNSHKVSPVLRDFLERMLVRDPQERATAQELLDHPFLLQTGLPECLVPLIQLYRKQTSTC
substance,measurement,value
"3xFlag‐LRRK2 wild type, Q5S007 1-2527","fold of LRRK2 bound, against 2xMyc‐14‐3‐3 zeta",3.5 fold
